Molecular target: host plasminogen (Plg), porcine (pig)
Assay: ELISA; microtiter plates coated with 0.8 ug/well Plg in 50 mM carbonate-bicarbonate buffer pH 9.8; His-tagged proteins added at 1 ug/mL; detected with His-tag monoclonal antibody and HRP anti-mouse; OD450

| Substance | fold binding activity (OD450) over the negative control rNOD1 [fold] |
| --- | --- |
| truncated rMhp390(27-247) (domain or fragment) | 2.56 |
| truncated rMhp390(425-604) (domain or fragment) | 2.68 |
